Starred links: 1 amine or outer side, 2 acyl side, 3 side chain; linkers in the order of their positions; H or OH if unused. Positions of bridges follow the written chain, without caps; N, C: chain ends. Non-standard residues stand in square brackets, D forms with d. Groups on a side chain read outwards from the residue. *: point of attachment. X1 = K(γGlu-G-γGlu-17-carboxy-heptadecanoyl), O=C(O)CCCCCCCCCCCCCCCCC(=O)N[C@@H](CCC(=O)NCC(=O)N[C@@H](CCC(=O)NCCCC[C@H](N[*:1])C(=O)[*:2])C(=O)O)C(=O)O; Trp(1-Me) = Cn1cc(C[C@H](N)C(=O)O)c2ccccc21; C18 diacid = O=C(O)CCCCCCCCCCCCCCCCC(=O)*; C16 diacid = O=C(O)CCCCCCCCCCCCCCC(=O)*; γGlu = O=C(O)[C@H](CCC(=O)[*:2])N[*:1]; AEEA = NCCOCCOCC(=O)O; Sar = CNCC(=O)O
B1: Compound 136 (peptide)
peptide: Ac-SEFCI[Trp(1-Me)]QDWGEHRCTEGE-{8‑aminooctanoyl-X1-NH2}
modifications: disulfide 4-14
B2: Compound 135 (peptide)
peptide: Ac-SEFCI[Trp(1-Me)]QDWGEHRCTGAESK([γGlu-Gly-γGlu-15‑carboxy‑hexadecanoyl])-NH2
modifications: disulfide 4-14
B3: Compound 134 (peptide)
peptide: Ac-EFCI[Trp(1-Me)]QDWGEHRCEGEK([γGlu-Gly-γGlu-C18 diacid])-NH2
modifications: disulfide 3-13
SMILES: CC[C@H](C)[C@@H]1NC(=O)[C@@H](NC(=O)[C@H](Cc2ccccc2)NC(=O)[C@H](CCC(=O)O)NC(C)=O)CSSC[C@@H](C(=O)N[C@@H](CCC(=O)O)C(=O)NCC(=O)N[C@@H](CCC(=O)O)C(=O)N[C@@H](CCCCNC(=O)CC[C@H](NC(=O)CNC(=O)CC[C@H](NC(=O)CCCCCCCCCCCCCCCCC(=O)O)C(=O)O)C(=O)O)C(N)=O)NC(=O)[C@H](CCCNC(=N)N)NC(=O)[C@H](Cc2c[nH]cn2)NC(=O)[C@H](CCC(=O)O)NC(=O)CNC(=O)[C@H](Cc2c[nH]c3ccccc23)NC(=O)[C@H](CC(=O)O)NC(=O)[C@H](CCC(N)=O)NC(=O)[C@H](Cc2cn(C)c3ccccc23)NC1=O
B4: Compound 138 (peptide)
peptide: Ac-SEFCI[Trp(1-Me)]QDWGEHRC[Sar]EGE-{AEEA-X1-NH2}
modifications: disulfide 4-14
SMILES: CC[C@H](C)[C@@H]1NC(=O)[C@@H](NC(=O)[C@H](Cc2ccccc2)NC(=O)[C@H](CCC(=O)O)NC(=O)[C@H](CO)NC(C)=O)CSSC[C@@H](C(=O)N(C)CC(=O)N[C@@H](CCC(=O)O)C(=O)NCC(=O)N[C@@H](CCC(=O)O)C(=O)NCCOCCOCC(=O)N[C@@H](CCCCNC(=O)CC[C@H](NC(=O)CNC(=O)CC[C@H](NC(=O)CCCCCCCCCCCCCCCCC(=O)O)C(=O)O)C(=O)O)C(N)=O)NC(=O)[C@H](CCCNC(=N)N)NC(=O)[C@H](Cc2c[nH]cn2)NC(=O)[C@H](CCC(=O)O)NC(=O)CNC(=O)[C@H](Cc2c[nH]c3ccccc23)NC(=O)[C@H](CC(=O)O)NC(=O)[C@H](CCC(N)=O)NC(=O)[C@H](Cc2cn(C)c3ccccc23)NC1=O
B5: Compound 143 (peptide)
peptide: Ac-SEFCI[Trp(1-Me)]QDWGEHRC[Sar]EGE-{AEEA-AEEA-AEEA-X1-NH2}
modifications: disulfide 4-14
SMILES: CC[C@H](C)[C@@H]1NC(=O)[C@@H](NC(=O)[C@H](Cc2ccccc2)NC(=O)[C@H](CCC(=O)O)NC(=O)[C@H](CO)NC(C)=O)CSSC[C@@H](C(=O)N(C)CC(=O)N[C@@H](CCC(=O)O)C(=O)NCC(=O)N[C@@H](CCC(=O)O)C(=O)NCCOCCOCC(=O)NCCOCCOCC(=O)NCCOCCOCC(=O)N[C@@H](CCCCNC(=O)CC[C@H](NC(=O)CNC(=O)CC[C@H](NC(=O)CCCCCCCCCCCCCCCCC(=O)O)C(=O)O)C(=O)O)C(N)=O)NC(=O)[C@H](CCCNC(=N)N)NC(=O)[C@H](Cc2c[nH]cn2)NC(=O)[C@H](CCC(=O)O)NC(=O)CNC(=O)[C@H](Cc2c[nH]c3ccccc23)NC(=O)[C@H](CC(=O)O)NC(=O)[C@H](CCC(N)=O)NC(=O)[C@H](Cc2cn(C)c3ccccc23)NC1=O
B6: Compound 132 (peptide)
peptide: Ac-SEFCI[Trp(1-Me)]QDWGEHRC[Sar]EK[γGlu]GGGK([γGlu-Gly-γGlu-C18 diacid])-NH2
modifications: disulfide 4-14
SMILES: CC[C@H](C)[C@@H]1NC(=O)[C@@H](NC(=O)[C@H](Cc2ccccc2)NC(=O)[C@H](CCC(=O)O)NC(=O)[C@H](CO)NC(C)=O)CSSC[C@@H](C(=O)N(C)CC(=O)N[C@@H](CCC(=O)O)C(=O)N[C@@H](CCCCN)C(=O)N[C@@H](CCC(=O)NCC(=O)NCC(=O)NCC(=O)N[C@@H](CCCCNC(=O)CC[C@H](NC(=O)CNC(=O)CC[C@H](NC(=O)CCCCCCCCCCCCCCCCC(=O)O)C(=O)O)C(=O)O)C(N)=O)C(=O)O)NC(=O)[C@H](CCCNC(=N)N)NC(=O)[C@H](Cc2c[nH]cn2)NC(=O)[C@H](CCC(=O)O)NC(=O)CNC(=O)[C@H](Cc2c[nH]c3ccccc23)NC(=O)[C@H](CC(=O)O)NC(=O)[C@H](CCC(N)=O)NC(=O)[C@H](Cc2cn(C)c3ccccc23)NC1=O
B7: Compound 137 (peptide)
peptide: Ac-SEFCI[Trp(1-Me)]QDWGEHRCTEGE-{8‑aminooctanoyl-Glu-X1-NH2}
modifications: disulfide 4-14
B8: Compound 133 (peptide)
peptide: Ac-SEFCI[Trp(1-Me)]QDWGEHRCTEK[γGlu]GGGK([γGlu-Gly-γGlu-C18 diacid])-NH2
modifications: disulfide 4-14
SMILES: CC[C@H](C)[C@@H]1NC(=O)[C@@H](NC(=O)[C@H](Cc2ccccc2)NC(=O)[C@H](CCC(=O)O)NC(=O)[C@H](CO)NC(C)=O)CSSC[C@@H](C(=O)N[C@H](C(=O)N[C@@H](CCC(=O)O)C(=O)N[C@@H](CCCCN)C(=O)N[C@@H](CCC(=O)NCC(=O)NCC(=O)NCC(=O)N[C@@H](CCCCNC(=O)CC[C@H](NC(=O)CNC(=O)CC[C@H](NC(=O)CCCCCCCCCCCCCCCCC(=O)O)C(=O)O)C(=O)O)C(N)=O)C(=O)O)[C@@H](C)O)NC(=O)[C@H](CCCNC(=N)N)NC(=O)[C@H](Cc2c[nH]cn2)NC(=O)[C@H](CCC(=O)O)NC(=O)CNC(=O)[C@H](Cc2c[nH]c3ccccc23)NC(=O)[C@H](CC(=O)O)NC(=O)[C@H](CCC(N)=O)NC(=O)[C@H](Cc2cn(C)c3ccccc23)NC1=O
B9: Compound 8 (peptide)
peptide: Ac-ICIWQKWGAHRCTGAES-NH2
modifications: disulfide 2-12
SMILES: CC[C@H](C)[C@H](NC(C)=O)C(=O)N[C@H]1CSSC[C@@H](C(=O)N[C@H](C(=O)NCC(=O)N[C@@H](C)C(=O)N[C@@H](CCC(=O)O)C(=O)N[C@@H](CO)C(N)=O)[C@@H](C)O)NC(=O)[C@H](CCCNC(=N)N)NC(=O)[C@H](Cc2c[nH]cn2)NC(=O)[C@H](C)NC(=O)CNC(=O)[C@H](Cc2c[nH]c3ccccc23)NC(=O)[C@H](CCCCN)NC(=O)[C@H](CCC(N)=O)NC(=O)[C@H](Cc2c[nH]c3ccccc23)NC(=O)[C@H]([C@@H](C)CC)NC1=O
B10: Compound 131 (peptide)
peptide: Ac-SEFCI[Trp(1-Me)]QDWGEHRCTEGEGGGK([γGlu-Gly-γGlu-C16 diacid])-NH2
modifications: disulfide 4-14
SMILES: CC[C@H](C)[C@@H]1NC(=O)[C@@H](NC(=O)[C@H](Cc2ccccc2)NC(=O)[C@H](CCC(=O)O)NC(=O)[C@H](CO)NC(C)=O)CSSC[C@@H](C(=O)N[C@H](C(=O)N[C@@H](CCC(=O)O)C(=O)NCC(=O)N[C@@H](CCC(=O)O)C(=O)NCC(=O)NCC(=O)NCC(=O)N[C@@H](CCCCNC(=O)CC[C@H](NC(=O)CNC(=O)CC[C@H](NC(=O)CCCCCCCCCCCCCCC(=O)O)C(=O)O)C(=O)O)C(N)=O)[C@@H](C)O)NC(=O)[C@H](CCCNC(=N)N)NC(=O)[C@H](Cc2c[nH]cn2)NC(=O)[C@H](CCC(=O)O)NC(=O)CNC(=O)[C@H](Cc2c[nH]c3ccccc23)NC(=O)[C@H](CC(=O)O)NC(=O)[C@H](CCC(N)=O)NC(=O)[C@H](Cc2cn(C)c3ccccc23)NC1=O

Molecular target: Human C3 (Complement tech cat #A113c) (human, UniProt P01024 23-1663)
Assay: cell-based or functional assay

Sequence of Human C3 (Complement tech cat #A113c) (P01024 23-1663 limits assumed): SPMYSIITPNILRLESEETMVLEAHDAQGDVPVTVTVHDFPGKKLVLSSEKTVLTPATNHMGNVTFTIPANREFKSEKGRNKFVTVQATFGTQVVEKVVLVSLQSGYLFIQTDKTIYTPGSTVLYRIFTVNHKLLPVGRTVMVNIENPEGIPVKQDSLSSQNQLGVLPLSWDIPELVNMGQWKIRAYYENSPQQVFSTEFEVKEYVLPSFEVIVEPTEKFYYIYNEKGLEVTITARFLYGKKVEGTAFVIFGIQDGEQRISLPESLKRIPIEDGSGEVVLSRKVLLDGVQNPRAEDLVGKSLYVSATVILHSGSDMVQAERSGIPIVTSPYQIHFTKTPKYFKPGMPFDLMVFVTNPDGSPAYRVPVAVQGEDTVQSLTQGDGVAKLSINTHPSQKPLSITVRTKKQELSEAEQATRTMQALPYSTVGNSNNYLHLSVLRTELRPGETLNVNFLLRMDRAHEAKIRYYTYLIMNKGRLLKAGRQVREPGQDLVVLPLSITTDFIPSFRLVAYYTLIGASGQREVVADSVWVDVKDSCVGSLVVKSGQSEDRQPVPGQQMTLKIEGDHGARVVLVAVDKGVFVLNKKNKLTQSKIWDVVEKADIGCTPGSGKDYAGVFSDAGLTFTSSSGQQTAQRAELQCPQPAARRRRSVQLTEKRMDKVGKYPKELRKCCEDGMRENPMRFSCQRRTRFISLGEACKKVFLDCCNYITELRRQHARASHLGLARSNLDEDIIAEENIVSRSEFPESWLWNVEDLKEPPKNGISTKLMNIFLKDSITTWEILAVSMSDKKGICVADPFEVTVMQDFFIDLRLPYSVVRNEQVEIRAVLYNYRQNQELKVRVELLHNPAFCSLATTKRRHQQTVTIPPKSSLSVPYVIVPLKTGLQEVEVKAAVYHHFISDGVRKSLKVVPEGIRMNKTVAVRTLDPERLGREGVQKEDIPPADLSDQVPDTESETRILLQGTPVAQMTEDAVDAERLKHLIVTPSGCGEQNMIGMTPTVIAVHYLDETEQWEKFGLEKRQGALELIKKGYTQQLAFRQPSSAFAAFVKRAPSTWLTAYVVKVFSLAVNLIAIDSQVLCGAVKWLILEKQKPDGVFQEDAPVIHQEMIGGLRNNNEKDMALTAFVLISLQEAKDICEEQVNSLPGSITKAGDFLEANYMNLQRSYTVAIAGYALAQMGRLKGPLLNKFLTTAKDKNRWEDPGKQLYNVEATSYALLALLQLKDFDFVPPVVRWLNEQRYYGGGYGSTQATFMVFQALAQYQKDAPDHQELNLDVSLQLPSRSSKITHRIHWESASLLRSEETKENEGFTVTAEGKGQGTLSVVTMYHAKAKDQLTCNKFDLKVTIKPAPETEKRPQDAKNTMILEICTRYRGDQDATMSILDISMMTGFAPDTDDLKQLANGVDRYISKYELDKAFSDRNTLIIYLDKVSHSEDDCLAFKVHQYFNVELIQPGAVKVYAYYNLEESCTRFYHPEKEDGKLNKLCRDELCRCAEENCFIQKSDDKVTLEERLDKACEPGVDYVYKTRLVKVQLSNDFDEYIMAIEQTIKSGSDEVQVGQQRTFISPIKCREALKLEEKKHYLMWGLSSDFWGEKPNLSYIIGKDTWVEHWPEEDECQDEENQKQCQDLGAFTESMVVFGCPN

Binder	inhibition of hemolysis IC50
B1	< 100 nM
B2	< 100 nM
B3	< 100 nM
B4	< 100 nM
B5	< 100 nM
B6	< 100 nM
B7	< 100 nM
B8	< 100 nM
B9	< 500 nM
B10	< 100 nM

From US11965039B2, “Compstatin analogues and their medical uses” (priority 2018, dated 2024)
